{
  "source": "patent US20170089895A1",
  "key": {"[1]": {"molecular_target": "Purified HNA-4a protein (CD11b) (human) (UniProt P11215)", "experiment": "Luminex bead assay, protein on microbeads; ratio to negative mouse IgG; 6 tests"}, "[2]": {"molecular_target": "Purified HNA-5a protein (CD11a) (human) (UniProt P20701)", "sequence (P20701 26-1170 limits assumed)": "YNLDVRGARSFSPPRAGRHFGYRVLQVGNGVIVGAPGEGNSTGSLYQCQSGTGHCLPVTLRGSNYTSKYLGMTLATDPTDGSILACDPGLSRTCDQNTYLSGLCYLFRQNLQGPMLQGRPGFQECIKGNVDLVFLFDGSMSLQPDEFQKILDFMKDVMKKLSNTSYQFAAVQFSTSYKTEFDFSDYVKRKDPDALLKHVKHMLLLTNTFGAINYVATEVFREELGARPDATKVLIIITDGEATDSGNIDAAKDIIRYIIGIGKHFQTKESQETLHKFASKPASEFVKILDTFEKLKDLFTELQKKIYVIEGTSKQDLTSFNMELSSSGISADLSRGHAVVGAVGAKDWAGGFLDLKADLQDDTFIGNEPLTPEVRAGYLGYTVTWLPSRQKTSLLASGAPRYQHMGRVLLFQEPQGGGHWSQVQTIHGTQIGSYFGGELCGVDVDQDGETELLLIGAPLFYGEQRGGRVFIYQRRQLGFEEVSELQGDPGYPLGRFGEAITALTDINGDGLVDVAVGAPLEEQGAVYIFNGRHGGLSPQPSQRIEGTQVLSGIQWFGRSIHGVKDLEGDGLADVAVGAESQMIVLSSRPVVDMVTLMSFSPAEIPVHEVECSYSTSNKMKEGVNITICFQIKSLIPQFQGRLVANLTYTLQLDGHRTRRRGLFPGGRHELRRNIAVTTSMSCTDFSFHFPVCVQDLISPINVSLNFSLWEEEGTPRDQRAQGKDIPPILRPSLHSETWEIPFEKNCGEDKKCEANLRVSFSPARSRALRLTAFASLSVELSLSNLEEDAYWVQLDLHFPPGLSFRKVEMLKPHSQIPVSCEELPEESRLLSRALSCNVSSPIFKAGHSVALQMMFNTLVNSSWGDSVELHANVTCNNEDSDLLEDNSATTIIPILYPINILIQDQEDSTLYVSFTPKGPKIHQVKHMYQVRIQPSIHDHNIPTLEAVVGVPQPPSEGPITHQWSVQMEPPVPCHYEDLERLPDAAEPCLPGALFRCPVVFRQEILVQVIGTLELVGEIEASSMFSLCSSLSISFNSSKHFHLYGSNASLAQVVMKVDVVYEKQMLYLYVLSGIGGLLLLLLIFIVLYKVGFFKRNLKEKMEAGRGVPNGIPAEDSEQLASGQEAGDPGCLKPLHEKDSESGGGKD", "experiment": "Luminex bead assay, protein on microbeads; ratio to negative mouse IgG; 6 tests"}, "[3]": {"molecular_target": "HNA-1b L136A modified protein (human) (UniProt O75015)", "experiment": "Luminex bead assay, protein on microbeads, PE goat anti-human IgG; reference, 1 by definition"}, "[4]": {"molecular_target": "wild type HNA-1a protein (Fc gamma receptor type IIIb, FcγRIIIb, CD16b) (human) (UniProt O75015)", "experiment": "Luminex bead assay, protein on microbeads, PE goat anti-human IgG; reference, 1 by definition"}, "[5]": {"molecular_target": "HNA-1c W131F modified protein (human) (UniProt O75015)", "experiment": "Luminex bead assay, protein on microbeads, PE goat anti-human IgG; reference, 1 by definition"}, "[6]": {"molecular_target": "Purified HNA-3a protein (CTL2) (human) (UniProt Q8IWA5)", "sequence (Q8IWA5 whole entry)": "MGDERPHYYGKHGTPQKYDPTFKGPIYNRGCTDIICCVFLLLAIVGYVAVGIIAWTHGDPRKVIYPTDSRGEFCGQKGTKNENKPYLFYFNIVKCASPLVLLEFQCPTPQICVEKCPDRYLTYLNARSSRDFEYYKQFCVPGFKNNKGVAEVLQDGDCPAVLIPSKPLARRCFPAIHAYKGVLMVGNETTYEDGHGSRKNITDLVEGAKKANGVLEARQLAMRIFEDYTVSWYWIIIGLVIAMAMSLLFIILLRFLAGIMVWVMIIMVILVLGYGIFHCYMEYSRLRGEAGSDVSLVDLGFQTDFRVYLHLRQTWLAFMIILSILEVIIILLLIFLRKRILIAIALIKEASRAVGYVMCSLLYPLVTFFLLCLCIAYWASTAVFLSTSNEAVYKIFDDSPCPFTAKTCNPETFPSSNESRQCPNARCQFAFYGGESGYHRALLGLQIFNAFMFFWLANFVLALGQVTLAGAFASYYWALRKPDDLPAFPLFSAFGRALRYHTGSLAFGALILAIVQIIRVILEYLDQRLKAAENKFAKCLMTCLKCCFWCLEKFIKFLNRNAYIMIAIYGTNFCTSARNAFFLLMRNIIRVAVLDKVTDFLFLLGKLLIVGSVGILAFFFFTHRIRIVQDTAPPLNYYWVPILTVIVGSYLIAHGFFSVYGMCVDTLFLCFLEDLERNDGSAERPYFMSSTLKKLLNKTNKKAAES", "experiment": "Luminex bead assay, protein on microbeads, PE goat anti-human IgG; reference, 1 by definition"}, "[7]": {"molecular_target": "HNA-1c L136A modified protein (human) (UniProt O75015)", "experiment": "Luminex bead assay, protein on microbeads, PE goat anti-human IgG; reference, 1 by definition"}, "[8]": {"molecular_target": "wild type HNA-1b protein (Fc gamma receptor type IIIb, FcγRIIIb, CD16b) (human) (UniProt O75015)", "experiment": "Luminex bead assay, protein on microbeads, PE goat anti-human IgG; reference, 1 by definition"}, "[9]": {"molecular_target": "HNA-1a K138T modified protein (human) (UniProt O75015)", "experiment": "Luminex bead assay, protein on microbeads, PE goat anti-human IgG; reference, 1 by definition"}, "[10]": {"molecular_target": "HNA-1b W131F modified protein (human) (UniProt O75015)", "experiment": "Luminex bead assay, protein on microbeads, PE goat anti-human IgG; reference, 1 by definition"}, "[11]": {"molecular_target": "wild type HNA-1c protein (Fc gamma receptor type IIIb, FcγRIIIb, CD16b) (human) (UniProt O75015)", "experiment": "Luminex bead assay, protein on microbeads, PE goat anti-human IgG; reference, 1 by definition"}, "[12]": {"molecular_target": "HNA-1a L136A modified protein (human) (UniProt O75015)", "experiment": "Luminex bead assay, protein on microbeads, PE goat anti-human IgG; reference, 1 by definition"}, "[13]": {"molecular_target": "HNA-1b K138T modified protein (human) (UniProt O75015)", "experiment": "Luminex bead assay, protein on microbeads, PE goat anti-human IgG; reference, 1 by definition"}, "[14]": {"molecular_target": "HNA-1a W131F modified protein (human) (UniProt O75015)", "experiment": "Luminex bead assay, protein on microbeads, PE goat anti-human IgG; reference, 1 by definition"}, "[15]": {"molecular_target": "HNA-1c K138T modified protein (human) (UniProt O75015)", "experiment": "Luminex bead assay, protein on microbeads, PE goat anti-human IgG; reference, 1 by definition"}, "[16]": {"molecular_target": "Purified HNA-2 protein (CD177) (human) (UniProt Q8N6Q3)", "sequence (Q8N6Q3 22-408 limits assumed)": "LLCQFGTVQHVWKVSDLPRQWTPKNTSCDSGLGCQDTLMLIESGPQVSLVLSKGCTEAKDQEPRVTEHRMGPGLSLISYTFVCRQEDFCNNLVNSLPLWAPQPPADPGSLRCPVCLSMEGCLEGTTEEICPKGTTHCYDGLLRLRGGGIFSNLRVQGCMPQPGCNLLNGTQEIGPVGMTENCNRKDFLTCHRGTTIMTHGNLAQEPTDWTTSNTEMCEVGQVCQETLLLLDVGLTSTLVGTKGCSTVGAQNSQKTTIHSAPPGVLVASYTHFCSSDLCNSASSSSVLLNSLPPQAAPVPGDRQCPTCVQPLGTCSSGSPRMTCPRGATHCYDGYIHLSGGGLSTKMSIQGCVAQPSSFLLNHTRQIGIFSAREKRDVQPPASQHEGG", "experiment": "Luminex bead assay, protein on microbeads, PE goat anti-human IgG; reference, 1 by definition"}, "[17]": {"molecular_target": "wild type HNA-1a protein (Fc gamma receptor type IIIb, FcγRIIIb, CD16b) (human) (UniProt O75015)", "experiment": "Luminex bead assay, protein on microbeads, neat negative serum, PE goat anti-human IgG; non-specific IgG background"}, "[18]": {"molecular_target": "HNA-1a K138T modified protein (human) (UniProt O75015)", "experiment": "Luminex bead assay, protein on microbeads, neat negative serum, PE goat anti-human IgG; non-specific IgG background"}, "[19]": {"molecular_target": "HNA-1a L136A modified protein (human) (UniProt O75015)", "experiment": "Luminex bead assay, protein on microbeads, neat negative serum, PE goat anti-human IgG; non-specific IgG background"}, "[20]": {"molecular_target": "HNA-1a W131F modified protein (human) (UniProt O75015)", "experiment": "Luminex bead assay, protein on microbeads, neat negative serum, PE goat anti-human IgG; non-specific IgG background"}, "[21]": {"molecular_target": "HNA-1b L136A modified protein (human) (UniProt O75015)", "experiment": "Luminex bead assay, protein on microbeads, negative serum, PE goat anti-human IgG; non-specific IgG background"}, "[22]": {"molecular_target": "HNA-1c W131F modified protein (human) (UniProt O75015)", "experiment": "Luminex bead assay, protein on microbeads, negative serum, PE goat anti-human IgG; non-specific IgG background"}, "[23]": {"molecular_target": "HNA-1c L136A modified protein (human) (UniProt O75015)", "experiment": "Luminex bead assay, protein on microbeads, negative serum, PE goat anti-human IgG; non-specific IgG background"}, "[24]": {"molecular_target": "wild type HNA-1b protein (Fc gamma receptor type IIIb, FcγRIIIb, CD16b) (human) (UniProt O75015)", "experiment": "Luminex bead assay, protein on microbeads, negative serum, PE goat anti-human IgG; non-specific IgG background"}, "[25]": {"molecular_target": "HNA-1b W131F modified protein (human) (UniProt O75015)", "experiment": "Luminex bead assay, protein on microbeads, negative serum, PE goat anti-human IgG; non-specific IgG background"}, "[26]": {"molecular_target": "wild type HNA-1c protein (Fc gamma receptor type IIIb, FcγRIIIb, CD16b) (human) (UniProt O75015)", "experiment": "Luminex bead assay, protein on microbeads, negative serum, PE goat anti-human IgG; non-specific IgG background"}, "[27]": {"molecular_target": "HNA-1b K138T modified protein (human) (UniProt O75015)", "experiment": "Luminex bead assay, protein on microbeads, negative serum, PE goat anti-human IgG; non-specific IgG background"}, "[28]": {"molecular_target": "HNA-1c K138T modified protein (human) (UniProt O75015)", "experiment": "Luminex bead assay, protein on microbeads, negative serum, PE goat anti-human IgG; non-specific IgG background"}, "[29]": {"molecular_target": "Purified HNA-4a protein (CD11b) (human) (UniProt P11215)", "experiment": "Luminex bead assay, protein on microbeads; reference, 1 by definition"}, "[30]": {"molecular_target": "Purified HNA-5a protein (CD11a) (human) (UniProt P20701)", "experiment": "Luminex bead assay, protein on microbeads; reference, 1 by definition"}},
  "data": [
    {"substance": "Positive mouse IgG (#ICRF44) (antibody)", "values": [
      {"measurement": "detection ratio", "setting": "[1]", "value": 594, "unit": "fold"},
      {"measurement": "detection ratio", "setting": "[2]", "value": 3, "unit": "fold"}
    ]},
    {"substance": "Positive mouse IgG (#TS1/18) (antibody)", "values": [
      {"measurement": "detection ratio", "setting": "[1]", "value": 543, "unit": "fold"},
      {"measurement": "detection ratio", "setting": "[2]", "value": 5, "unit": "fold"}
    ]},
    {"substance": "Negative Sera (#LSNC) (antibody)", "values": [
      {"measurement": "Fold Increased Ratio Against Negative Sera", "setting": "[3]", "value": 1, "unit": "fold"},
      {"measurement": "Fold Increased Ratio Against Negative Sera", "setting": "[4]", "value": 1, "unit": "fold"},
      {"measurement": "Fold Increased Ratio Against Negative Sera", "setting": "[5]", "value": 1, "unit": "fold"},
      {"measurement": "detection ratio", "setting": "[6]", "value": 1, "unit": "fold"},
      {"measurement": "Fold Increased Ratio Against Negative Sera", "setting": "[7]", "value": 1, "unit": "fold"},
      {"measurement": "Fold Increased Ratio Against Negative Sera", "setting": "[8]", "value": 1, "unit": "fold"},
      {"measurement": "Fold Increased Ratio Against Negative Sera", "setting": "[9]", "value": 1, "unit": "fold"},
      {"measurement": "Fold Increased Ratio Against Negative Sera", "setting": "[10]", "value": 1, "unit": "fold"},
      {"measurement": "Fold Increased Ratio Against Negative Sera", "setting": "[11]", "value": 1, "unit": "fold"},
      {"measurement": "Fold Increased Ratio Against Negative Sera", "setting": "[12]", "value": 1, "unit": "fold"},
      {"measurement": "Fold Increased Ratio Against Negative Sera", "setting": "[13]", "value": 1, "unit": "fold"},
      {"measurement": "Fold Increased Ratio Against Negative Sera", "setting": "[14]", "value": 1, "unit": "fold"},
      {"measurement": "Fold Increased Ratio Against Negative Sera", "setting": "[15]", "value": 1, "unit": "fold"},
      {"measurement": "detection ratio", "setting": "[16]", "value": 1, "unit": "fold"},
      {"measurement": "Background Value (MFI)", "setting": "[17]", "value": 1910, "unit": "MFI"},
      {"measurement": "Background Value (MFI)", "setting": "[18]", "value": 450, "unit": "MFI"},
      {"measurement": "Background Value (MFI)", "setting": "[19]", "value": 290, "unit": "MFI"},
      {"measurement": "Background Value (MFI)", "setting": "[20]", "value": 417, "unit": "MFI"},
      {"measurement": "Background Value (MFI)", "setting": "[21]", "value": 277, "unit": "MFI"},
      {"measurement": "Background Value (MFI)", "setting": "[22]", "value": 181, "unit": "MFI"},
      {"measurement": "Background Value (MFI)", "setting": "[23]", "value": 209, "unit": "MFI"},
      {"measurement": "Background Value (MFI)", "setting": "[24]", "value": 1970, "unit": "MFI"},
      {"measurement": "Background Value (MFI)", "setting": "[25]", "value": 183, "unit": "MFI"},
      {"measurement": "Background Value (MFI)", "setting": "[26]", "value": 1500, "unit": "MFI"},
      {"measurement": "Background Value (MFI)", "setting": "[27]", "value": 187, "unit": "MFI"},
      {"measurement": "Background Value (MFI)", "setting": "[28]", "value": 126, "unit": "MFI"}
    ]},
    {"substance": "Negative mouse IgG (antibody)", "values": [
      {"measurement": "detection ratio", "setting": "[29]", "value": 1, "unit": "fold"},
      {"measurement": "detection ratio", "setting": "[30]", "value": 1, "unit": "fold"}
    ]}
  ]
}
